Positions count from the first letter of the chain named.
B1: De4-CFP (designed binder, not shown: large carriers)
chain: LPESPRFAQKIWQQSVIGDYLARFKNDRVKALKAMEDSSNNSSMHRFAEFFAKAFEDLHRYLEEL
B2: De1-CFP (designed binder, not shown: large carriers)
chain: NGYSSEDKLRIAKRHLLPKQIERNALKKGELFVSEFAILGIILFYTDEAGVRGLEREISKLCRKAVKQLLLDKSTTSSHASGFHLHDYLGVMR
B3: De2-CFP (designed binder, not shown: large carriers)
chain: B2 chain with S4W, L9E, F32K, S34W, L39F, D47W, S77R, H79W

How the values were obtained:
TRPV1-YFP [1] = experiment: FRET ratio regression, design-CFP and TRPV1-YFP co-expressed in HEK293 cells; parameters: Apparent KD (FRET ratio fit): unit not given here
TRPV1-YFP [2] = experiment: spectraFRET in live HEK293 cells, CFP on design, YFP on TRPV1; indistinguishable from CFP+YFP negative control
TRPV1-YFP [3] = experiment: spectraFRET in live HEK293 cells, CFP on design, YFP on TRPV1

| Binder | Apparent KD (FRET ratio fit) (TRPV1-YFP [1]) | FRET efficiency (TRPV1-YFP [2]) [%] | FRET ratio max (TRPV1-YFP [1]) | FRET efficiency (TRPV1-YFP [3]) [%] |
| --- | --- | --- | --- | --- |
| B1 | 9.5e+09 | 3.8 | – | – |
| B2 | 120000 | – | 3.86 | – |
| B3 | 75000 | – | 2.35 | 7.4 |

Source: patent US20240166695A1, “PEPTIDIC POSITIVE ALLOSTERIC MODULATORS TARGETING TRPV1” (priority 2021, published 2024)
